Tests used:
human CXCR4 (human) [1] = assay: competition vs [125I]-CXCL12; potency relative to monovalent 238D2
human CXCR4 (human) [2] = assay: competition vs [125I]-CXCL12, membranes of HEK293T cells expressing CXCR4
CCR5 = CCR5 (UniProt P51681); assay: cell-based or functional assay
human CXCR4 (human) [3] = assay: cell-based or functional assay
human CXCR4 (human) [4] = assay: competition vs [125I]-CXCL12; potency relative to monovalent 238D4
human CXCR4 (human) [5] = assay: competition with [125I]-CXCL12 on HEK293T-CXCR4 membranes
human CXCR4 (human) [6] = molecular target: human CXCR4 (human)
human CXCR4 (human) [7] = assay: competition vs [125I]-238D2 (3 nM), membranes of HEK293T cells expressing CXCR4; Table B-3 competition vs [125I]-238D2, at 0.5 µM: no displacement
human CXCR4 (human) [8] = assay: competition vs [125I]-238D4 (3 nM), membranes of HEK293T cells expressing CXCR4; Table B-3 competition vs [125I]-238D4, at 0.5 µM: no displacement
human CXCR4 (human) [9] = assay: competition vs [125I]-238D2 (3 nM), membranes of HEK293T cells expressing CXCR4; Table B-3 competition vs [125I]-238D2, up to 0.5 µM; bound only
human CXCR4 (human) [10] = assay: periplasmic fraction (1:10), displacement of [125I]-CXCL12, HEK293T-CXCR4 membranes; - = 0-29%, + = 30-69%, ++ = 70-100%; screening of clones (Table B-2): 30-69% displacement of [125I]-CXCL12, HEK293T-CXCR4 membranes
human CXCR4 (human) [11] = assay: competition vs [125I]-238D4 (3 nM), membranes of HEK293T cells expressing CXCR4; Table B-3 competition vs [125I]-238D4, up to 0.5 µM; bound only
human CXCR4 (human) [12] = assay: competition vs [125I]-CXCL12 (40 pM), membranes of HEK293T cells expressing CXCR4; Table B-3 competition vs [125I]-CXCL12, up to 0.5 µM; bound only

Sequence of CCR5 (P51681 whole entry): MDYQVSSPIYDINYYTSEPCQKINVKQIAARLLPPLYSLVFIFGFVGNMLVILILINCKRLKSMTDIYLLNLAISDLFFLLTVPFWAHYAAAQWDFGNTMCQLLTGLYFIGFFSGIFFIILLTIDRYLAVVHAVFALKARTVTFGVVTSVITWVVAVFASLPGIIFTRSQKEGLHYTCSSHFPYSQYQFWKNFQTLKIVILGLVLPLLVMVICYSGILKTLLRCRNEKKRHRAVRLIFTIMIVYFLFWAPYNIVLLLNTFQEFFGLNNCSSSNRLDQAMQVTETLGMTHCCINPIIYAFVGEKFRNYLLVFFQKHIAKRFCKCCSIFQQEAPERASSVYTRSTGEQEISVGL

B1: 238D2-10GS-238D2 (VHH)
chain: EVQLVESGGGLVQTGGSLRLSCAASGFTFSSYAMSWVRQAPGKGLEWVSGIKSSGDSTRYAGSVKGRFTISRDNAKNMLYLQMYSLKPEDTAVYYCAKSRVSRTGLYTYDNRGQGTQVTVSSGGGGSGGGGSEVQLVESGGGLVQTGGSLRLSCAASGFTFSSYAMSWVRQAPGKGLEWVSGIKSSGDSTRYAGSVKGRFTISRDNAKNMLYLQMYSLKPEDTAVYYCAKSRVSRTGLYTYDNRGQGTQVTVSS
With B1 the Rel. potency (human CXCR4 (human) [1]) was 14 fold, the Displacem. (%) (human CXCR4 (human) [2]) was 95% and the pKi (human CXCR4 (human) [2]) was 9.16.

B2: 238D2-20GS-238D4 (VHH)
chain: EVQLVESGGGLVQTGGSLRLSCAASGFTFSSYAMSWVRQAPGKGLEWVSGIKSSGDSTRYAGSVKGRFTISRDNAKNMLYLQMYSLKPEDTAVYYCAKSRVSRTGLYTYDNRGQGTQVTVSSGGGGSGGGGSGGGGSGGGGSEVQLMESGGGLVQAGGSLRLSCAASGRTFNNYAMGWFRRAPGKEREFVAAITRSGVRSGVSAIYGDSVKDRFTISRDNAKNTLYLQMNSLKPEDTAVYTCAASAIGSGALRRFEYDYSGQGTQVTVSS
In the case of B2, the Anti-HIV-1 activity (in nM), PBMC/BaL (CCR5) is reported as > 100 nM, the Anti-HIV-1 activity (in nM), U87.CD4.CCR5/BaL (CCR5) is reported as > 100 nM and the IC50, HIV-1 BaL, PBMC donor 1 (CCR5) is reported as > 1 µg/mL. The IC50, HIV-1 BaL, PBMC donor 2 (CCR5) was > 1 µg/mL, the IC90, HIV-1 BaL, PBMC donor 1 (CCR5) was > 1 µg/mL and the IC90, HIV-1 BaL, PBMC donor 2 (CCR5) was > 1 µg/mL. The nM IC50, HIV-1 BAL, PBMC donor 1 (CCR5) was > 67 nM, the nM IC50, HIV-1 BAL, PBMC donor 2 (CCR5) was > 67 nM and the Anti-HIV-1 activity (in nM), MT-4/NL4.3 (human CXCR4 (human) [3]) was 0.25 nM. For the same binder, the Anti-HIV-1 activity (in nM), PBMC/HE (human CXCR4 (human) [3]) was 2.3 nM, the Anti-HIV-1 activity (in nM), PBMC/NL4.3 (human CXCR4 (human) [3]) was 0.2 nM and the Anti-HIV-1 activity (in nM), U87.CD4.CXCR4/NL4.3 (human CXCR4 (human) [3]) was 0.35 nM. For the same binder, the Chemotaxis, Jurkat/0.3 nM CXCL12, Imax (%) (human CXCR4 (human) [3]) was 100%, the Chemotaxis, Jurkat/0.3 nM CXCL12, pKi or pIC50 (human CXCR4 (human) [3]) was 10.2 and the IC50, HIV-1 NL4.3, MT-4 cells, exp. 1 (human CXCR4 (human) [3]) was 0.0069 µg/mL. For the same binder, the IC50, HIV-1 NL4.3, PBMC donor 1 (human CXCR4 (human) [3]) was 0.0182 µg/mL, the IC50, HIV-1 NL4.3, PBMC donor 2 (human CXCR4 (human) [3]) was 0.0092 µg/mL and the IC50, HIV-1 UG270, PBMC donor 1 (human CXCR4 (human) [3]) was 0.0242 µg/mL. For the same binder, the IC50, HIV-1 UG270, PBMC donor 2 (human CXCR4 (human) [3]) was 0.0831 µg/mL, the IC90, HIV-1 NL4.3, MT-4 cells, exp. 1 (human CXCR4 (human) [3]) was 0.0238 µg/mL and the IC90, HIV-1 NL4.3, PBMC donor 1 (human CXCR4 (human) [3]) was 0.0972 µg/mL. For the same binder, the IC90, HIV-1 NL4.3, PBMC donor 2 (human CXCR4 (human) [3]) was 0.0731 µg/mL, the IC90, HIV-1 UG270, PBMC donor 1 (human CXCR4 (human) [3]) was 0.139 µg/mL and the IC90, HIV-1 UG270, PBMC donor 2 (human CXCR4 (human) [3]) was 0.168 µg/mL. The nM IC50, HIV-1 NL4.3, PBMC donor 1 (human CXCR4 (human) [3]) was 0.61 nM, the nM IC50, HIV-1 NL4.3, PBMC donor 2 (human CXCR4 (human) [3]) was 0.31 nM and the nM IC50, HIV-1 UG270, PBMC donor 1 (human CXCR4 (human) [3]) was 0.81 nM. It also gave a nM IC50, HIV-1 UG270, PBMC donor 2 (human CXCR4 (human) [3]) of 2.77 nM, a Rel. potency (human CXCR4 (human) [4]) of 17 fold and a Rel. potency (human CXCR4 (human) [1]) of 27 fold. For the same binder, the IC50 (read off the curve) (human CXCR4 (human) [5]) was 0.5 nM, the Displacem. (%) (human CXCR4 (human) [2]) was 103% and the pKi (human CXCR4 (human) [2]) was 9.44. For the same binder, the IC50 (read off the curve), migration of Jurkat cells towards 0.3 nM CXCL12 (human CXCR4 (human) [6]) was 0.2 nM.

B3: Nanobody 237A6 (VHH)
VHH: EVQLVESGGGLVQAGGSLRLSCAASGSIFSLNAMGWYRQAPGKQRELVAGITSSTSTYYADSVKGRFTISRDNTKNTVYLQMNSLKPEDTAVYYCNVDCPDYYSDYECPLEDRGQGTQVTVSS
B3 was tested, and the Displacem. (%) (human CXCR4 (human) [7]) was 0%, the Displacem. (%) (human CXCR4 (human) [8]) was 0% and the pKi (human CXCR4 (human) [9]) was < 6.3. The percent inhibition of specific [125I]-CXCL12 binding (human CXCR4 (human) [10]) was 30 to 69%, the pKi (human CXCR4 (human) [11]) was < 6.3 and the pKi (human CXCR4 (human) [12]) was < 6.3.

B4: Nanobody 237G7 (VHH, from a related filing, part only)
VHH: EVQLVESGGGLVQPGGSLRLSCAASSFIGNYHAIVWLRQAPGKELEGVSCITSRDSITYYASFVKGRFTISRDDAKNTVYLQMNNLKPEDTAVYYCAVBTSMTCPTLIVRFNYRGQGTQVTVSS
With B4 the Displacem. (%) (human CXCR4 (human) [7]) was 0%, the Displacem. (%) (human CXCR4 (human) [8]) was 0% and the pKi (human CXCR4 (human) [9]) was < 6.3. For the same binder, the percent inhibition of specific [125I]-CXCL12 binding (human CXCR4 (human) [10]) was 30 to 69%, the pKi (human CXCR4 (human) [11]) was < 6.3 and the pKi (human CXCR4 (human) [12]) was < 6.3.

From patent publication US20110318347A1
